Test results published in US20210246166A1 (Bayer, published 2021).
Numbered stars: 1 amine (or outer) side, 2 acyl side, 3 side chain; on linkers, the order of the positions; unused ones are H or OH. Bridge positions count the residues as written; N and C are the ends. Square brackets hold non-standard residues; d marks the D form. Ends that are not written are not given here. X13 = (2S)‑2‑amino‑3‑(1-methylcyclopropyl)propanoic acid, CC1(C[C@H](N[*:1])C(=O)[*:2])CC1; Pro(cis-4-CF3) = O=C(O)[C@@H]1C[C@H](C(F)(F)F)CN1; Oic = O=C(O)[C@@H]1C[C@@H]2CCCC[C@@H]2N1; PEG8 = NCCOCCOCCOCCOCCOCCOCCOCCOCCC(=O)O; tBuAla = CC(C)(C)C[C@H](N)C(=O)O; PEG4 = NCCOCCOCCOCCOCCC(=O)O; Pen = CC(C)(S)[C@H](N)C(=O)O; Tranexamic = tranexamic acid; 4Amb = NCc1ccc(C(=O)O)cc1; NMeC = CN[C@@H](CS)C(=O)O; Nva = CCC[C@H](N)C(=O)O; Ac4c = NC1(C(=O)O)CCC1; PEG2 = NCCOCCOCCC(=O)O; Sar = CNCC(=O)O

Columns and labels:
[1] = target: T1, recombinant rat MASP1 active protease (amino acids 302-704, C-terminal His Tag) (rat, UniProt Q8CHN8 302-704); assay: cell-based or functional assay
T1 sequence: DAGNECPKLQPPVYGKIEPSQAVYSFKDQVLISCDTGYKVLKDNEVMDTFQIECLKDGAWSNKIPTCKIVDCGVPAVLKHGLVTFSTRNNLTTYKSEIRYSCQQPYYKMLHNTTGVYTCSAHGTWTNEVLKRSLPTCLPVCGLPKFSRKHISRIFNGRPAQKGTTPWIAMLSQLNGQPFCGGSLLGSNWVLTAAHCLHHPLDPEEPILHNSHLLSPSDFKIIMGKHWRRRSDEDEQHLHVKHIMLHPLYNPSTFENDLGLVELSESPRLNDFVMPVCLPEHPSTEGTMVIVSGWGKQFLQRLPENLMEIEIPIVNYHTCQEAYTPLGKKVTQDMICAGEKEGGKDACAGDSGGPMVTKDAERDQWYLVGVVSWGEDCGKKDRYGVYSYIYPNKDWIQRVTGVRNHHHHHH

[2] = target: recombinant rat MASP2 active protease (amino acids 296-685, C-terminal His Tag) (rat, UniProt Q9JJS8 296-685); assay: cell-based or functional assay
recombinant rat MASP2 active protease (amino acids 296-685, C-terminal His Tag), sequence (Q9JJS8 other isoform, or with tags, fused parts or gaps limits assumed): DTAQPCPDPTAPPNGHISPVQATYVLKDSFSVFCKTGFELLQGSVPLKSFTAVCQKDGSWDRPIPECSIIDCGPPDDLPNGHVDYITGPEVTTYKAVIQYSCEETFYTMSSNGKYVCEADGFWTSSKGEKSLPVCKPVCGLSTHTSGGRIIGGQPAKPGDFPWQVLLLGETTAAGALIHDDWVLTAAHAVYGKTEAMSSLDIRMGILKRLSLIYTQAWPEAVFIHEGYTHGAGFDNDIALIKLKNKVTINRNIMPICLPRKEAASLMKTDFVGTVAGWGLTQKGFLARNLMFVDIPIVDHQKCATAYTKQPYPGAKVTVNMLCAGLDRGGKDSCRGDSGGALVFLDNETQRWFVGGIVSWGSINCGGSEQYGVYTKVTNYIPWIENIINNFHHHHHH

Binder | rat MASP1 IC50 [1] [nM] | rat MASP2 IC50 [2] [nM]
[Sar]ICSRSLP[Oic]I[Pen]IP[PEG8]-NH2 (disulfide 3-11; N-terminus assumed; SMILES CC[C@H](C)[C@H](NC(=O)CNC)C(=O)N[C@H]1CSSC(C)(C)[C@@H](C(=O)N[C@H](C(=O)N2CCC[C@H]2C(=O)NCCOCCOCCOCCOCCOCCOCCOCCOCCC(N)=O)[C@@H](C)CC)NC(=O)[C@H]([C@@H](C)CC)NC(=O)[C@@H]2C[C@@H]3CCCC[C@@H]3N2C(=O)[C@@H]2CCCN2C(=O)[C@H](CC(C)C)NC(=O)[C@H](CO)NC(=O)[C@H](CCCNC(=N)N)NC(=O)[C@H](CO)NC1=O) [Example 168: ((N-Me)G)-IC+SRSLP-(Oic)-I-(Pen)+IP-(PEG8(28 atoms))-NH2] | 140 | 53
[Ac4c]ICSRS[tBuAla]PPI[Pen]I-NH2 (disulfide 3-11; N-terminus assumed; SMILES CC[C@H](C)[C@H](NC(=O)[C@H]1NC(=O)[C@H]([C@@H](C)CC)NC(=O)[C@@H]2CCCN2C(=O)[C@@H]2CCCN2C(=O)[C@H](CC(C)(C)C)NC(=O)[C@H](CO)NC(=O)[C@H](CCCNC(=N)N)NC(=O)[C@H](CO)NC(=O)[C@@H](NC(=O)[C@@H](NC(=O)C2(N)CCC2)[C@@H](C)CC)CSSC1(C)C)C(N)=O) [Example 208: (ACBA)-IC+SRS-((tBu)A)-PPI-(Pen)+I-NH2] | 61 | 8.6
AICSRSLPPI[Pen]IPD-NH2 (disulfide 3-11; N-terminus assumed; SMILES CC[C@H](C)[C@H](NC(=O)[C@H](C)N)C(=O)N[C@H]1CSSC(C)(C)[C@@H](C(=O)N[C@H](C(=O)N2CCC[C@H]2C(=O)N[C@@H](CC(=O)O)C(N)=O)[C@@H](C)CC)NC(=O)[C@H]([C@@H](C)CC)NC(=O)[C@@H]2CCCN2C(=O)[C@@H]2CCCN2C(=O)[C@H](CC(C)C)NC(=O)[C@H](CO)NC(=O)[C@H](CCCNC(=N)N)NC(=O)[C@H](CO)NC1=O) [Example 170: AIC+SRSLPPI-(Pen)+IPD-NH2] | 54 | 9.82
FICSRS[tBuAla]PPI[Pen]IPD-NH2 (disulfide 3-11; N-terminus assumed; SMILES CC[C@H](C)[C@H](NC(=O)[C@@H](N)Cc1ccccc1)C(=O)N[C@H]1CSSC(C)(C)[C@@H](C(=O)N[C@H](C(=O)N2CCC[C@H]2C(=O)N[C@@H](CC(=O)O)C(N)=O)[C@@H](C)CC)NC(=O)[C@H]([C@@H](C)CC)NC(=O)[C@@H]2CCCN2C(=O)[C@@H]2CCCN2C(=O)[C@H](CC(C)(C)C)NC(=O)[C@H](CO)NC(=O)[C@H](CCCNC(=N)N)NC(=O)[C@H](CO)NC1=O) [Example 211: FIC+SRS-((tBu)A)-PPI-(Pen)+IPD-NH2] | 75 | 23
AICSRS[tBuAla]P[Pro(cis-4-CF3)]ICIPD-NH2 (disulfide 3-11; N-terminus assumed; SMILES CC[C@H](C)[C@H](NC(=O)[C@H](C)N)C(=O)N[C@H]1CSSC[C@@H](C(=O)N[C@H](C(=O)N2CCC[C@H]2C(=O)N[C@@H](CC(=O)O)C(N)=O)[C@@H](C)CC)NC(=O)[C@H]([C@@H](C)CC)NC(=O)[C@@H]2C[C@H](C(F)(F)F)CN2C(=O)[C@@H]2CCCN2C(=O)[C@H](CC(C)(C)C)NC(=O)[C@H](CO)NC(=O)[C@H](CCCNC(=N)N)NC(=O)[C@H](CO)NC1=O) [Example 158: AIC+SRS-((tBu)A)-P-((4-CF3)P)-IC+IPD-NH2] | 247 | 420
[Sar]ICSRSLP[Oic]I[Pen]I[5‑Azaspiro(2.4)heptane‑1‑carboxylic acid]-OH (disulfide 3-11) [Example 194: ((N-Me)G)-IC+SRSLP-(Oic)-I-(Pen)+I-((5-Azaspiro[2.4]heptane-1-carboxylic acid)-OH] | 70 | 42
[Sar]ICSRS[tBuAla]PPI[Pen]IP-{PEG2-NH2} (disulfide 3-11) [Example 207: ((N-Me)G)-IC+SRS-((tBu)A)-PPI-(Pen)+IP-(PEG1(10 atoms))-NH2] | 43 | 33.6
[Sar]ICSRS[tBuAla]PPI[Pen]IP[PEG4]-NH2 (disulfide 3-11; N-terminus assumed; SMILES CC[C@H](C)[C@H](NC(=O)CNC)C(=O)N[C@H]1CSSC(C)(C)[C@@H](C(=O)N[C@H](C(=O)N2CCC[C@H]2C(=O)NCCOCCOCCOCCOCCC(N)=O)[C@@H](C)CC)NC(=O)[C@H]([C@@H](C)CC)NC(=O)[C@@H]2CCCN2C(=O)[C@@H]2CCCN2C(=O)[C@H](CC(C)(C)C)NC(=O)[C@H](CO)NC(=O)[C@H](CCCNC(=N)N)NC(=O)[C@H](CO)NC1=O) [Example 174: ((N-Me)G)-IC+SRS-((tBu)A)-PPI-(Pen)+IP-(PEG3(16atoms))-NH2] | 65.6 | 35.1

Continued, values first:

rat MASP1 IC50 [1] [nM] | rat MASP2 IC50 [2] [nM] | Binder
100 | 15 | [Sar]ICSRS[X13]PPI[Pen]IP-NH2 (disulfide 3-11; N-terminus assumed; SMILES CC[C@H](C)[C@H](NC(=O)CNC)C(=O)N[C@H]1CSSC(C)(C)[C@@H](C(=O)N[C@H](C(=O)N2CCC[C@H]2C(N)=O)[C@@H](C)CC)NC(=O)[C@H]([C@@H](C)CC)NC(=O)[C@@H]2CCCN2C(=O)[C@@H]2CCCN2C(=O)[C@H](CC2(C)CC2)NC(=O)[C@H](CO)NC(=O)[C@H](CCCNC(=N)N)NC(=O)[C@H](CO)NC1=O) [Example 197: ((N-Me)G)-IC+SRS-((2S)-2-amino-3-(1-methylcyclopropyl)propanoic acid)-PPI-(Pen)+IP-NH2]
77 | 3.7 | [4Amb]ICSRS[tBuAla]PPI[Pen]IPD-NH2 (disulfide 3-11; N-terminus assumed; SMILES CC[C@H](C)[C@H](NC(=O)c1ccc(CN)cc1)C(=O)N[C@H]1CSSC(C)(C)[C@@H](C(=O)N[C@H](C(=O)N2CCC[C@H]2C(=O)N[C@@H](CC(=O)O)C(N)=O)[C@@H](C)CC)NC(=O)[C@H]([C@@H](C)CC)NC(=O)[C@@H]2CCCN2C(=O)[C@@H]2CCCN2C(=O)[C@H](CC(C)(C)C)NC(=O)[C@H](CO)NC(=O)[C@H](CCCNC(=N)N)NC(=O)[C@H](CO)NC1=O) [Example 187: (4-(Aminomethyl)benzoic acid)-IC+SRS-((tBu)A)-PPI-(Pen)+IPD-NH2]
180 | 49 | A[Nva]CSRS[tBuAla]PPI[Pen]IPD-NH2 (disulfide 3-11; N-terminus assumed; SMILES CCC[C@H](NC(=O)[C@H](C)N)C(=O)N[C@H]1CSSC(C)(C)[C@@H](C(=O)N[C@H](C(=O)N2CCC[C@H]2C(=O)N[C@@H](CC(=O)O)C(N)=O)[C@@H](C)CC)NC(=O)[C@H]([C@@H](C)CC)NC(=O)[C@@H]2CCCN2C(=O)[C@@H]2CCCN2C(=O)[C@H](CC(C)(C)C)NC(=O)[C@H](CO)NC(=O)[C@H](CCCNC(=N)N)NC(=O)[C@H](CO)NC1=O) [Example 199: A-(Nva)-C+SRS-((tBu)A)-PPI-(Pen)+IPD-NH2]
57 | 10.9 | AICSRSLP[Oic]I[NMeC]IPD-NH2 (disulfide 3-11; N-terminus assumed; SMILES CC[C@H](C)[C@H](NC(=O)[C@H](C)N)C(=O)N[C@H]1CSSC[C@@H](C(=O)N[C@H](C(=O)N2CCC[C@H]2C(=O)N[C@@H](CC(=O)O)C(N)=O)[C@@H](C)CC)N(C)C(=O)[C@H]([C@@H](C)CC)NC(=O)[C@@H]2C[C@@H]3CCCC[C@@H]3N2C(=O)[C@@H]2CCCN2C(=O)[C@H](CC(C)C)NC(=O)[C@H](CO)NC(=O)[C@H](CCCNC(=N)N)NC(=O)[C@H](CO)NC1=O) [Example 185: AIC+SRSLP-(Oic)-I-((N-Me)C)+IPD-NH2]
42 | 21 | AICSRS[tBuAla]PPI[Pen]IP[Tranexamic]-NH2 (disulfide 3-11) [Example 171: AIC+SRS-((tBu)A)-PPI-(Pen)+IP-(Tranexamic)-NH2]
